Here are results for one substance from US20050202538A1 (Merck KGaA, published 2005).

For this assay, the target named is T1, EPO receptor (expressed on TF-1 cells) (UniProt P19235).
T1 sequence (looked up): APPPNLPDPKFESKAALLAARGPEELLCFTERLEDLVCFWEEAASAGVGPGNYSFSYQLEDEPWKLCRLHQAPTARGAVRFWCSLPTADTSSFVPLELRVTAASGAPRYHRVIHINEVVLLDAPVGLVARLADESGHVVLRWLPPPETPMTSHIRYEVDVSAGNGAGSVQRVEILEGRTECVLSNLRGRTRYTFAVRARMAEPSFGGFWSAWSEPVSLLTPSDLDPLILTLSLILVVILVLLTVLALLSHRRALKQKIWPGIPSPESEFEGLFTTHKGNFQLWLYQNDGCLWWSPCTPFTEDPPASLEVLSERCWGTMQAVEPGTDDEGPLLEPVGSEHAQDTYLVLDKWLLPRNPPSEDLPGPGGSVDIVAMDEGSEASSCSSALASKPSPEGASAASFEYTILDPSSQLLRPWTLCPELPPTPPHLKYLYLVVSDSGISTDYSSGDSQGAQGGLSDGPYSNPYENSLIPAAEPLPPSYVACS
Kind of assay: cell-based or functional assay.

EPO (Aranesp®) (ligand): the ED50, TF-1 cell proliferation (3H-thymidine incorporation); S.D. 0.96, N 10 was found to be 2.4 ng/mL.
